Assay results published in patent publication US20110009361A1.

Each substance was assayed against IL-13 receptor (IL-4Rα/IL-13Rα1) on TF-1 cells (human) (UniProt P78552) (assay: cell-based or functional assay).
Sequence of IL-13 receptor (IL-4Rα/IL-13Rα1) on TF-1 cells (human) (P78552 22-427, chain 1 of 2): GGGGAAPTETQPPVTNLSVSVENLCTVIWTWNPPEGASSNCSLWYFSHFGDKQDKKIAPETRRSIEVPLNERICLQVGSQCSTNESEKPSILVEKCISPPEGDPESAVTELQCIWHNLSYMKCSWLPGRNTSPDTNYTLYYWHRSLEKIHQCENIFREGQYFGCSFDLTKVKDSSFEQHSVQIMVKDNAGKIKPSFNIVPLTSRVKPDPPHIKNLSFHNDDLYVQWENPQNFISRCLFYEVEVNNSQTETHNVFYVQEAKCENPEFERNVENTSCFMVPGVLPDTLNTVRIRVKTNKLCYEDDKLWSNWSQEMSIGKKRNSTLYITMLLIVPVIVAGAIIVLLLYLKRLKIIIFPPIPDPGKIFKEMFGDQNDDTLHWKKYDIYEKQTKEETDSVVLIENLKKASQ
Sequence of IL-13 receptor (IL-4Rα/IL-13Rα1) on TF-1 cells (human) (P24394 26-825, chain 2 of 2, further chain): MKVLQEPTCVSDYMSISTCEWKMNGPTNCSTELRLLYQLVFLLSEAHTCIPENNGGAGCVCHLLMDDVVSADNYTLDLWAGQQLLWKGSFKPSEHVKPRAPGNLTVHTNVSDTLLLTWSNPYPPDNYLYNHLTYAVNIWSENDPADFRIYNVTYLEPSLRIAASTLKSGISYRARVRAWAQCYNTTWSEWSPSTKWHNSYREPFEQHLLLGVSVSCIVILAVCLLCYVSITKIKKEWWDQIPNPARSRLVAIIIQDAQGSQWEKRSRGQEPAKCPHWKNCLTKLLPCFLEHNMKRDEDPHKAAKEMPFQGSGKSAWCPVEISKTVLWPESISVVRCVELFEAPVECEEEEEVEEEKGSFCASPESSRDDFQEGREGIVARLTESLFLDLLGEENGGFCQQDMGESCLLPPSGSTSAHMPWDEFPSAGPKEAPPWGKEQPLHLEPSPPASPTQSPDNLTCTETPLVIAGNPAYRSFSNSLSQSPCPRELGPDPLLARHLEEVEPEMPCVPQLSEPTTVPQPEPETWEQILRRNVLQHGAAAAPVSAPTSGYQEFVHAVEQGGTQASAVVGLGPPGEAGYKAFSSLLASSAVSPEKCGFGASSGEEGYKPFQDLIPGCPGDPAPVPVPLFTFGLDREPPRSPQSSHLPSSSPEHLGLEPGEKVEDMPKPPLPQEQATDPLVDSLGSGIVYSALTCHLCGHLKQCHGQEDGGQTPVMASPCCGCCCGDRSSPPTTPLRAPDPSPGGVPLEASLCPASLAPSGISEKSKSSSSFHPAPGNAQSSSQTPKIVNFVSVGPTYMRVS
“IL-13Q111 H102A (from UniProt P35225 35-146) (ligand)” showed a Concentration of IL-13 required for 50% TF-1 cell proliferation (ED50, ave) of 5.31 ng/mL. Substance “IL-13Q111 K25A (from UniProt P35225 35-146) (ligand)” has a Concentration of IL-13 required for 50% TF-1 cell proliferation (ED50, ave) of 2.64 ng/mL. With “IL-13Q111 K97A (from UniProt P35225 35-146) (ligand)” the Concentration of IL-13 required for 50% TF-1 cell proliferation (ED50, ave) was 1.33 ng/mL. “IL-13Q111 K104A (from UniProt P35225 35-146) (ligand)” gave a Concentration of IL-13 required for 50% TF-1 cell proliferation (ED50, ave) of 46.2 ng/mL. Work on “IL-13Q111 K105A (from UniProt P35225 35-146) (ligand)” yielded a Concentration of IL-13 required for 50% TF-1 cell proliferation (ED50, ave) of 22.6 ng/mL. For “IL-13Q111 R108A (from UniProt P35225 35-146) (ligand)”, the Concentration of IL-13 required for 50% TF-1 cell proliferation (ED50, ave) was 3.2 ng/mL. “human IL-13 with glutamine at position 111 (IL-13Q111) (from UniProt P35225 35-146) (ligand)” was tested, and the Concentration of IL-13 required for 50% TF-1 cell proliferation (ED50, ave) was 1.26 ng/mL. Work on “wild type human IL-13 with arginine in the 111 position (from UniProt P35225 35-146) (ligand)” yielded a Concentration of IL-13 required for 50% TF-1 cell proliferation (ED50, ave) of 1.2 ng/mL.
